The supplement of paper PMC5998384

Experiments:
HeLa Kyoto [1] = assay: solubility in G1/S (NP-40 vs SDS abundance) (log2 ratio); higher = more soluble; details: cell cycle stage: G1/S
HeLa Kyoto [2] = assay: solubility change mitosis vs G1/S (difference of NP-40 vs SDS log2 ratios) (log2 ratio difference); higher = more soluble in mitosis
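Throughout, for solubility change mitosis vs G1/S (difference of NP-40 vs SDS log2 ratios): synchronized HeLa Kyoto cells (double thymidine block for G1/S, nocodazole release for mitosis), protein amounts in NP-40 versus SDS lysates quantified by mass spectrometry, three biological replicates.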
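Throughout, for solubility in G1/S (NP-40 vs SDS abundance): HeLa Kyoto cells arrested at G1/S by double thymidine block, proteins quantified by TMT10plex mass spectrometry in mild NP-40 versus SDS extracts, three biological replicates.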

Sequence: MEPQEERETQVAAWLKKIFGDHPIPQYEVNPRTTEILHHLSERNRVRDRDVYLVIEDLKQKASEYESEAKYLQDLLMESVNFSPANLSSTGSRYLNALVDSAVALETKDTSLASFIPAVNDLTSDLFRTKSKSEEIKIELEKLEKNLTATLVLEKCLQEDVKKAELHLSTERAKVDNRRQNMDFLKAKSEEFRFGIKAAEEQLSARGMDASLSHQSLVALSEKLARLKQQTIPLKKKLESYLDLMPNPSLAQVKIEEAKRELDSIEAELTRRVDMMEL [HAUS1]
- solubility in G1/S (log2) (HeLa Kyoto [1]): 0.463
- solubility change mitosis (log2) (HeLa Kyoto [2]): 0.128

Sequence: MEPQVTLNVTFKNEIQSFLVSDPENTTWADIEAMVKVSFDLNTIQIKYLDEENEEVSINSQGEYEEALKMAVKQGNQLQMQVHEGHHVVDEAPPPVVGAKRLAARAGKKPLAHYSSLVRVLGSDMKTPEDPAVQSFPLVPCDTDQPQDKPPDWFTSYLETFREQVVNETVEKLEQKLHEKLVLQNPSLGSCPSEVSMPTSEETLFLPENQFSWHIACNNCQRRIVGVRYQCSLCPSYNICEDCEAGPYGHDTNHVLLKLRRPVVGSSEPFCHSKYSTPRLPAALEQVRLQKQVDKNFLKAEKQRLRAEKKQRKAEVKELKKQLKLHRKIHLWNSIHGLQSPKSPLGRPESLLQSNTLMLPLQPCTSVMPMLSAAFVDENLPDGTHLQPGTKFIKHWRMKNTGNVKWSADTKLKFMWGNLTLASTEKKDVLVPCLKAGHVGVVSVEFIAPALEGTYTSHWRLSHKGQQFGPRVWCSIIVDPFPSEESPDNIEKGMISSSKTDDLTCQQEETFLLAKEERQLGEVTEQTEGTAACIPQKAKNVASERELYIPSVDLLTAQDLLSFELLDINIVQELERVPHNTPVDVTPCMSPLPHDSPLIEKPGLGQIEEENEGAGFKALPDSMVSVKRKAENIASVEEAEEDLSGTQFVCETVIRSLTLDAAPDHNPPCRQKSLQMTFALPEGPLGNEKEEIIHIAEEEAVMEEEEDEEDEEEEDELKDEVQSQSSASSEDYIIILPECFDTSRPLGDSMYSSALSQPGLERGAEGKPGVEAGQEPAEAGERLPGGENQPQEHSISDILTTSQTLETVPLIPEVVELPPSLPRSSPCVHHHGSPGVDLPVTIPEVSSVPDQIRGEPRGSSGLVNSRQKSYDHSRHHHGSSIAGGLVKGALSVAASAYKALFAGPPVTAQPIISEDQTAALMAHLFEMGFCDRQLNLRLLKKHNYNILQVVTELLQLNNNDWYSQRY [NBR1]
- solubility in G1/S (log2) (HeLa Kyoto [1]): -0.371
- solubility change mitosis (log2) (HeLa Kyoto [2]): 0.193

Sequence: MERAVRVESGVLVGVVCLLLACPATATGPEVAQPEVDTTLGRVRGRQVGVKGTDRLVNVFLGIPFAQPPLGPDRFSAPHPAQPWEGVRDASTAPPMCLQDVESMNSSRFVLNGKQQIFSVSEDCLVLNVYSPAEVPAGSGRPVMVWVHGGALITGAATSYDGSALAAYGDVVVVTVQYRLGVLGFFSTGDEHAPGNQGFLDVVAALRWVQENIAPFGGDLNCVTVFGGSAGGSIISGLVLSPVAAGLFHRAITQSGVITTPGIIDSHPWPLAQKIANTLACSSSSPAEMVQCLQQKEGEELVLSKKLKNTIYPLTVDGTVFPKSPKELLKEKPFHSVPFLMGVNNHEFSWLIPRGWGLLDTMEQMSREDMLAISTPVLTSLDVPPEMMPTVIDEYLGSNSDAQAKCQAFQEFMGDVFINVPTVSFSRYLRDSGSPVFFYEFQHRPSSFAKIKPAWVKADHGAEGAFVFGGPFLMDESSRLAFPEATEEEKQLSLTMMAQWTHFARTGDPNSKALPPWPQFNQAEQYLEINPVPRAGQKFREAWMQFWSETLPSKIQQWHQKQKNRKAQEDL [CES3]
- solubility in G1/S (log2) (HeLa Kyoto [1]): 0.261
- solubility change mitosis (log2) (HeLa Kyoto [2]): -0.166
